# Measurements from article PMC6174099.
# T1: Heat shock factor 1 (HSF1), wild-type, monomer (human), Q00613
# T1 chain: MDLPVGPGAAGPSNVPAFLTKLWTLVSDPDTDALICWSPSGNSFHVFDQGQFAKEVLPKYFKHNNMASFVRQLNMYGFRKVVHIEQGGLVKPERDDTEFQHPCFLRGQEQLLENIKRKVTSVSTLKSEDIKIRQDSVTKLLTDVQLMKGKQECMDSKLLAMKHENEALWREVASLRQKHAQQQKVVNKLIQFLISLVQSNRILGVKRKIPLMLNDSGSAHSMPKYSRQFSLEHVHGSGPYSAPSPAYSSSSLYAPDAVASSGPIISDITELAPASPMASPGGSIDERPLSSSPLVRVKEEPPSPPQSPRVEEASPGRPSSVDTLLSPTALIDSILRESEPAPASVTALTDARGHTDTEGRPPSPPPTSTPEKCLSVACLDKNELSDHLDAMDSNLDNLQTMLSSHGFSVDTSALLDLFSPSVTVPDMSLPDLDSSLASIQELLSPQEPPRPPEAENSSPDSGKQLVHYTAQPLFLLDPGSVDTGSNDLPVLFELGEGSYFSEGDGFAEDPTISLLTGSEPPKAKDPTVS
# Molecular target: T1, Heat shock factor 1 (HSF1), wild-type, …
# Assay: SEC
# Conditions: remark: other sources report otherwise
binder,measurement,value
"Heat shock factor 1 (HSF1), wild-type, monomer, Q00613 1-529 (natural protein) MDLPVGPGAAGPSNVPAFLTKLWTLVSDPDTDALICWSPSGNSFHVFDQGQFAKEVLPKYFKHNNMASFVRQLNMYGFRKVVHIEQGGLVKPERDDTEFQHPCFLRGQEQLLENIKRKVTSVSTLKSEDIKIRQDSVTKLLTDVQLMKGKQECMDSKLLAMKHENEALWREVASLRQKHAQQQKVVNKLIQFLISLVQSNRILGVKRKIPLMLNDSGSAHSMPKYSRQFSLEHVHGSGPYSAPSPAYSSSSLYAPDAVASSGPIISDITELAPASPMASPGGSIDERPLSSSPLVRVKEEPPSPPQSPRVEEASPGRPSSVDTLLSPTALIDSILRESEPAPASVTALTDARGHTDTEGRPPSPPPTSTPEKCLSVACLDKNELSDHLDAMDSNLDNLQTMLSSHGFSVDTSALLDLFSPSVTVPDMSLPDLDSSLASIQELLSPQEPPRPPEAENSSPDSGKQLVHYTAQPLFLLDPGSVDTGSNDLPVLFELGEGSYFSEGDGFAEDPTISLLTGSEPPKAKDPTVS",stoichiometry N,3
